For one test, the target named is Fisp12/mCTGF (mouse) (UniProt P29268). Description: solid-phase binding isotherm: varied RGD-affinity purified αIIbβ3 on immobilized Fisp12/mCTGF, detected with 125I-mAb15; saturable.
Test [1] addresses integrin α4 subunit on 1064SK fibroblasts (human) (UniProt P13612). Description: cell-based or functional assay.
In test [2] the target is integrin α1 subunit on 1064SK fibroblasts (human) (UniProt P56199). In words: cell-based or functional assay.
Test [3] addresses integrin α6β1 on human cells (1064SK fibroblasts, endothelial cells) (human) (UniProt P23229). Description: cell-based or functional assay.
The target in test [4] is integrin α3 subunit on 1064SK fibroblasts (human) (UniProt P26006). Description: cell-based or functional assay.
For test [5], the target named is integrin α5β1 (fibronectin receptor) on 1064SK fibroblasts (human) (UniProt P08648). In words: cell-based or functional assay.
Test [6] addresses integrin α2 subunit on 1064SK fibroblasts (human) (UniProt P17301). In words: cell-based or functional assay.
Test [7] concerns the target integrin αv subunit (αv integrins αvβ1, αvβ3, αvβ5) on 1064SK fibroblasts (human) (UniProt P06756). Description: cell-based or functional assay.
For test [8], the target named is integrin β1 subunit (β1 integrins) on 1064SK fibroblasts (human) (UniProt P05556). Description: cell-based or functional assay.
Chain of integrin β1 subunit (β1 integrins) on 1064SK fibroblasts (human) (P05556 21-798): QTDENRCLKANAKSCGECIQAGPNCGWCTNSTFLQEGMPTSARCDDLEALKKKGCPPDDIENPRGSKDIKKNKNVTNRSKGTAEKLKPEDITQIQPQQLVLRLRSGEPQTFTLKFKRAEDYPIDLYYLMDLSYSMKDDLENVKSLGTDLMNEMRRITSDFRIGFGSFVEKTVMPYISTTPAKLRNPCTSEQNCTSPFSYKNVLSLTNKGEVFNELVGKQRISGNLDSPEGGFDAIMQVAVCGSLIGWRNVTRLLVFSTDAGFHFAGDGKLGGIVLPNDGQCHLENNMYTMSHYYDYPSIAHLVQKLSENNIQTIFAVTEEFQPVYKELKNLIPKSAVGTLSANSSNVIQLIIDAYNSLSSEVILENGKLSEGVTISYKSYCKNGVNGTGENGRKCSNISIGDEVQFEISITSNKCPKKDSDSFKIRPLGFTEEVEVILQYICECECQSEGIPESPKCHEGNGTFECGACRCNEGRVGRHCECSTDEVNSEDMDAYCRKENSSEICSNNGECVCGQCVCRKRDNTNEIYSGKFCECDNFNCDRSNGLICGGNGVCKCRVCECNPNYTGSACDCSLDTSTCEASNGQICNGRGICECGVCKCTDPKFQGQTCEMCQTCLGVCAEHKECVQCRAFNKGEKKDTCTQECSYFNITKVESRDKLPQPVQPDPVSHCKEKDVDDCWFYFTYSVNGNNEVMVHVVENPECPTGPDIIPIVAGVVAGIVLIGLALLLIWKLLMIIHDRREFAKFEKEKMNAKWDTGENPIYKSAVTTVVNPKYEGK
In test [9] the target is αvβ3 integrin on human cells (HUVE cells, fibroblasts, platelets) (human) (UniProt P06756). In words: cell-based or functional assay.
Chain of αvβ3 integrin on human cells (HUVE cells, fibroblasts, platelets) (human) (P06756 31-1048, chain 1 of 2): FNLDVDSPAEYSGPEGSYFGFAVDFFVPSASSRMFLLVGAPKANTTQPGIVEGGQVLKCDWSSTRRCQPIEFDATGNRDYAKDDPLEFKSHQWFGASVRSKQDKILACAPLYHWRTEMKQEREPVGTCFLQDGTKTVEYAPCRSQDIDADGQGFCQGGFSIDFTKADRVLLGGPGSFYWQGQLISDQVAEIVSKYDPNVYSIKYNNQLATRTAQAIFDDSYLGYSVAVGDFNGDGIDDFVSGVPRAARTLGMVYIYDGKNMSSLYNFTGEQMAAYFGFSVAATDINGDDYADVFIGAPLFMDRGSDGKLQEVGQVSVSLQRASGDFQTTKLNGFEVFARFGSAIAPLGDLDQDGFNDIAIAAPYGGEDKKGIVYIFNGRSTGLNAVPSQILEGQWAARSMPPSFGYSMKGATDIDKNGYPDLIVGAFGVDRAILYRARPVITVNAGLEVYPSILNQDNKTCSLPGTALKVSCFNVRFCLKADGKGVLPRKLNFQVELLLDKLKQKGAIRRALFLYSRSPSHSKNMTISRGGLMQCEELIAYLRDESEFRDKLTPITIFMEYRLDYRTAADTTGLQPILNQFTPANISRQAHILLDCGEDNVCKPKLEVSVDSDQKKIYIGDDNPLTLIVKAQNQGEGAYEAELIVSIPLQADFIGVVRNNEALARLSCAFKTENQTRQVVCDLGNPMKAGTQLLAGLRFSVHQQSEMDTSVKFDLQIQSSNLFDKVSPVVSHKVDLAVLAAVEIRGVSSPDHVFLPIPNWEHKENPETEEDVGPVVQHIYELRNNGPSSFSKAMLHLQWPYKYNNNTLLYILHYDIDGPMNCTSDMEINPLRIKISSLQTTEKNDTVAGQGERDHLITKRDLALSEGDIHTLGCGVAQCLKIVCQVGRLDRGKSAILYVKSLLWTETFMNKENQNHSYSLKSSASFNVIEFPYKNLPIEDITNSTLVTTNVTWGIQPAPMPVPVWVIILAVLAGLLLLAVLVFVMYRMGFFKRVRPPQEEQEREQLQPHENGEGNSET
Chain of αvβ3 integrin on human cells (HUVE cells, fibroblasts, platelets) (human) (P05106 27-788, chain 2 of 2, further chain): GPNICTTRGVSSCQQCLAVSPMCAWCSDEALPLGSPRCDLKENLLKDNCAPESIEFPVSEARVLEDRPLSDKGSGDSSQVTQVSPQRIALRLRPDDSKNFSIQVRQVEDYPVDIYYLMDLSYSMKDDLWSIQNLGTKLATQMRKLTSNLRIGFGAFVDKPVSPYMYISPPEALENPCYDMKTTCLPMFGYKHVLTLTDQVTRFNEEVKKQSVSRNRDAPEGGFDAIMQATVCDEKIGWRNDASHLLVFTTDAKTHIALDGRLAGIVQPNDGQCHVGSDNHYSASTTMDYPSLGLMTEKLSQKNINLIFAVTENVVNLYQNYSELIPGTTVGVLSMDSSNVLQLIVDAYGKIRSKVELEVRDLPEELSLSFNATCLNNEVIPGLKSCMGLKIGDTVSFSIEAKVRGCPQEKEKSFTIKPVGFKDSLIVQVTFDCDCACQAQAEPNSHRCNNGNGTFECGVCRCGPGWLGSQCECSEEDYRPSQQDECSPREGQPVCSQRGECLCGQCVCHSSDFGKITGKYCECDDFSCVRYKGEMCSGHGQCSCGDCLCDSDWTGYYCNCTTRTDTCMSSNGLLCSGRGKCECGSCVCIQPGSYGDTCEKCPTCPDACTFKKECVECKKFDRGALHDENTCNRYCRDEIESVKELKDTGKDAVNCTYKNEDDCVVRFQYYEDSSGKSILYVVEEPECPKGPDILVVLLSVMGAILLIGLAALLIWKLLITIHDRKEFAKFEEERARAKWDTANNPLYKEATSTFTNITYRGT

Where only a bound is given, the exact number is not on record here.

Chain of integrin α6β1 on human cells (1064SK fibroblasts, endothelial cells) (human) (P23229 24-1130, chain 1 of 2): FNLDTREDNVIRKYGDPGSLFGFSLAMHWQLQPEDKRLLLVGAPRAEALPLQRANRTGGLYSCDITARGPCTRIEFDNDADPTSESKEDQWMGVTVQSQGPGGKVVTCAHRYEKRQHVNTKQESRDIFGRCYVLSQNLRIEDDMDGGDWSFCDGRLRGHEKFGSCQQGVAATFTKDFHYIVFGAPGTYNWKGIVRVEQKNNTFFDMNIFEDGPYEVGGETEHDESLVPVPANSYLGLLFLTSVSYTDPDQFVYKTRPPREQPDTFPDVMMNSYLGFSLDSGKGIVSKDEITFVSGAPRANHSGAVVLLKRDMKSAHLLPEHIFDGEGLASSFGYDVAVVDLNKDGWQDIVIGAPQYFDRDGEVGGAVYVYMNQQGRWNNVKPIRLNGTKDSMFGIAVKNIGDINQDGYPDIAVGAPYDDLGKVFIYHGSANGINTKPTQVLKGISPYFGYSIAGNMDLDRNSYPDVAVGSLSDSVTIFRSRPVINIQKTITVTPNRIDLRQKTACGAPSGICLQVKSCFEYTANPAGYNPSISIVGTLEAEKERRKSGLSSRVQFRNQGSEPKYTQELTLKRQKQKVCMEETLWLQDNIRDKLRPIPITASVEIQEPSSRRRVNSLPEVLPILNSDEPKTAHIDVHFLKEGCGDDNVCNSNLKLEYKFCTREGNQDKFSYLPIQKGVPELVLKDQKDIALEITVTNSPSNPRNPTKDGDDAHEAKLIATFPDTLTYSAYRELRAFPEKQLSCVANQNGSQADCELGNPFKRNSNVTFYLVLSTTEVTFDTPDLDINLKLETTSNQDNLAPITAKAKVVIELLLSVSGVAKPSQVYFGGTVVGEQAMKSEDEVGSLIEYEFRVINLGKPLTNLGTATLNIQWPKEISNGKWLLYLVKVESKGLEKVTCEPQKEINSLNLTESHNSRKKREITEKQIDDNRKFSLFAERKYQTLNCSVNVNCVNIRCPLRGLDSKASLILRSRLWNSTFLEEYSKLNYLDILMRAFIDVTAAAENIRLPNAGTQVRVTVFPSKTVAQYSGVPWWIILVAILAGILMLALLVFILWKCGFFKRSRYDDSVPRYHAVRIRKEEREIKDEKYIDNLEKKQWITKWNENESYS
Chain of integrin α6β1 on human cells (1064SK fibroblasts, endothelial cells) (human) (P05556 21-798, chain 2 of 2, further chain): as the sequence (P05556 21-798) above
Chain of integrin αv subunit (αv integrins αvβ1, αvβ3, αvβ5) on 1064SK fibroblasts (human) (P06756 31-1048): as the sequence (P06756 31-1048, chain 1 of 2) above
Chain of integrin α2 subunit on 1064SK fibroblasts (human) (P17301 30-1181): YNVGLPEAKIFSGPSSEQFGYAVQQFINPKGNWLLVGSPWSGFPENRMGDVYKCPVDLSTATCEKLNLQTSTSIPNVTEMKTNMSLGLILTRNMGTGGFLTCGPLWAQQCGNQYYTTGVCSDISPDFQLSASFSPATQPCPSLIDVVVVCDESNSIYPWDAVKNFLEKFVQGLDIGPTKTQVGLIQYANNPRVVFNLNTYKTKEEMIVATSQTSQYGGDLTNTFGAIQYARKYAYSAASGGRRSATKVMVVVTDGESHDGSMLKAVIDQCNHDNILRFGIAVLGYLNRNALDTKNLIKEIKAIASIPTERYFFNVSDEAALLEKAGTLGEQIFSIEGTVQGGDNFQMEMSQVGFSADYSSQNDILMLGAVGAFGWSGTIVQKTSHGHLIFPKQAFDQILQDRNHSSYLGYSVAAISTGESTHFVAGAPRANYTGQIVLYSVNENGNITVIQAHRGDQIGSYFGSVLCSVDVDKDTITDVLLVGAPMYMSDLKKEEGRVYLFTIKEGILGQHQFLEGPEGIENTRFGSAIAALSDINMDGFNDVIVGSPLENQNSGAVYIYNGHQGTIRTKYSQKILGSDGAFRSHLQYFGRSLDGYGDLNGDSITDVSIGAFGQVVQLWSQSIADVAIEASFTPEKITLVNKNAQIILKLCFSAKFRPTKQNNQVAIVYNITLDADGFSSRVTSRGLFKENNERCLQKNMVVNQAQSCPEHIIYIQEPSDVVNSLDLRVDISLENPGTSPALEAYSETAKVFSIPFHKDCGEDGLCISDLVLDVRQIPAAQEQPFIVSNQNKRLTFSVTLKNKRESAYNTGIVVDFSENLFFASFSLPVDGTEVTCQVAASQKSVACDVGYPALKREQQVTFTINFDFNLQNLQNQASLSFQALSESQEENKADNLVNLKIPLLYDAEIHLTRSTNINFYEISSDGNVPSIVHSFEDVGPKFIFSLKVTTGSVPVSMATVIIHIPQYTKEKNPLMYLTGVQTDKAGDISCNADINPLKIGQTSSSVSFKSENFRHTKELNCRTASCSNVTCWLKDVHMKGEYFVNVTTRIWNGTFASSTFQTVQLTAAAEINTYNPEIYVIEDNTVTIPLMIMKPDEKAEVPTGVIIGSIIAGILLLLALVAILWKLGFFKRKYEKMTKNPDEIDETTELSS

In turn, “activated αIIbβ3 (RGD-affinity purified from human platelet lysates) (from UniProt P08514 32-1039; P05106 27-788) (receptor)” registered a half-saturation concentration in the test with Fisp12/mCTGF (mouse) of 15 nM.
In [1], “human Cyr61 (from UniProt O00622 25-381) (ligand)” had an A620, 1064SK adhesion to Cyr61 (2 µg/ml) after anti-α4 antibody (40 µg/ml); control without antibody 0.58 of 0.56 A620. The A620, 1064SK adhesion to Cyr61 (2 µg/ml) after anti-α1 antibody (40 µg/ml); control without antibody 0.58 in [2] was found to be 0.54 A620. Also, in test [3], the A620, 1064SK adhesion to Cyr61 (2 µg/ml) after anti-α6 antibody (20 µg/ml); 0.53 without antibody is 0.08 A620; the percent inhibition of 1064SK adhesion to Cyr61 by anti-α6 antibody is above 80%; the percent inhibition of 1064SK adhesion to wild-type Cyr61 by anti-α6 antibody (20 µg/ml) was 78%. In test [4], this substance showed an A620, 1064SK adhesion to Cyr61 (2 µg/ml) after anti-α3 antibody (40 µg/ml); control without antibody 0.58 of 0.55 A620. In test [5], the A620, 1064SK adhesion to Cyr61 (2 µg/ml) after anti-α5 antibody (40 µg/ml); no addition 0.75 worked out at 0.77 A620. In test [6], the A620, 1064SK adhesion to Cyr61 (2 µg/ml) after anti-α2 antibody (40 µg/ml); control without antibody 0.58 is 0.6 A620. The substance also came in with an A620, 1064SK adhesion to Cyr61 (2 µg/ml) after anti-αv antibody (40 µg/ml); no addition 0.75 in [7] of 0.73 A620. In [8], this substance came in with an A620, 1064SK adhesion to Cyr61 (2 µg/ml) after anti-β1 antibody JB1A (50 µg/ml); 0.53 without antibody of 0.14 A620 and a percent inhibition of 1064SK adhesion to Cyr61 by anti-β1 antibody JB1A of 75%. Besides, the relative binding capacity of HUVE cells on wild-type Cyr61 (5 µg/ml) after anti-αvβ3 antibody LM609 (40 µg/ml); no pre-incubation = 100 in test [9] turned out to be 42%.
In the case of mouse laminin (ligand), in test [3], the A620, 1064SK adhesion to laminin (5 µg/ml) after anti-α6 antibody; 0.62 without antibody was 0.48 A620 and the percent inhibition of 1064SK adhesion to laminin by anti-α6 antibody was found to be 22%.
In test [8], “rat tail Type-I collagen (from UniProt P02454 152-1207; P02466 86-1125) (ligand)” gave an A620, 1064SK adhesion to type I collagen (2 µg/ml) after anti-β1 antibody JB1A; 0.56 without antibody of 0.21 A620 and a percent inhibition of 1064SK adhesion to type I collagen by anti-β1 antibody JB1A of 62%.

The values are drawn from patent EP1254174B1.
